T1: Fragment J1–56 of GvpJ, split-GFP fusion (Halobacterium salinarum, UniProt P24374 1-56)
T1 construct: GvpJ, p-vac region of Hbt. salinarum PHH1, residues 1–56; source: Hfx. volcanii transformant, in cells
T1 sequence (looked up): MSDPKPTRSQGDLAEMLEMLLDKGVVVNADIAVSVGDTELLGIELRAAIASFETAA

T2: Fragment J47–114 of GvpJ, split-GFP fusion (Halobacterium salinarum, UniProt P24374 47-114)
T2 construct: source: Hfx. volcanii transformant, in cells
T2 sequence (looked up): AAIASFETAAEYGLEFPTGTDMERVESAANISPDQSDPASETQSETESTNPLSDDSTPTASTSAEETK

T3: GvpF, entire protein, split-GFP fusion (Halobacterium salinarum, UniProt Q9HI21 1-213)
T3 construct: GvpF, p-vac region of Hbt. salinarum PHH1, 23 kDa; also called the entire GvpF; source: Hfx. volcanii transformant, in cells
T3 sequence (looked up): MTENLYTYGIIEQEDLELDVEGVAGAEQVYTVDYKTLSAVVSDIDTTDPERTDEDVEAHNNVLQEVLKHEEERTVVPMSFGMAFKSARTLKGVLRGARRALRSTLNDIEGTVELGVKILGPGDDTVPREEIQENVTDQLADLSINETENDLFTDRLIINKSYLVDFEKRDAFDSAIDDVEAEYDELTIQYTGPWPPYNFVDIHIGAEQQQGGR

T4: Fragment L1–134 of GvpL, split-GFP fusion (Halobacterium salinarum, UniProt Q9HI27 1-134)
T4 construct: GvpL, p-vac region of Hbt. salinarum PHH1, residues 1–134 (first of two domains); source: Hfx. volcanii transformant, in cells
T4 sequence (looked up): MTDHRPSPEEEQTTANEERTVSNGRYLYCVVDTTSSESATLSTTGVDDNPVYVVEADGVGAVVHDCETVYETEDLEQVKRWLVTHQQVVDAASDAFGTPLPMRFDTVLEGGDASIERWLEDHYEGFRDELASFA

T5: Fragment L133–281 of GvpL, split-GFP fusion (Halobacterium salinarum, UniProt Q9HI27 133-281)
T5 construct: GvpL, p-vac region of Hbt. salinarum PHH1, residues 133–281 (second of two domains); source: Hfx. volcanii transformant, in cells
T5 sequence (looked up): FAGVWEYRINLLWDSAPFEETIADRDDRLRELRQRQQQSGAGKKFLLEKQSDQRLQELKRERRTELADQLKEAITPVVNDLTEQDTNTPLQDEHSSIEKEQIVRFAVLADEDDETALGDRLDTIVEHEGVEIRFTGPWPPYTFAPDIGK

T6: Fragment F1–110 of GvpF, split-GFP fusion (Halobacterium salinarum, UniProt Q9HI21 1-110)
T6 construct: GvpF, p-vac region of Hbt. salinarum PHH1, residues 1–110 (first of two domains); source: Hfx. volcanii transformant, in cells
T6 sequence (looked up): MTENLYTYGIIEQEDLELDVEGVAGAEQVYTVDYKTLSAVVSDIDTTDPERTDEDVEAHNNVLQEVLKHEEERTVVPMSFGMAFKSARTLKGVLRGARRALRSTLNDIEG

B1: GvpG, split-GFP fusion (natural protein, Halobacterium salinarum, UniProt P24371 1-83, looked up)
chain: MFIIDDLFVSPFFSLLDILQTMALDEMYDTKSIRDDIKENQLLYEVGERSDEEYQQRKQALESQLEMAEQVQEQMRDRMEVKK
notes: GvpG, p-vac region of Hbt. salinarum PHH1; no truncation is mentioned; source: Hfx. volcanii transformant, in cells
B2: GvpK, split-GFP fusion (natural protein)
chain: not shown
notes: GvpK, p-vac region of Hbt. salinarum PHH1; no truncation is mentioned; source: Hfx. volcanii transformant, in cells
B3: GvpL, entire protein, split-GFP fusion of Figure 7 (natural protein, Halobacterium salinarum, UniProt Q9HI27 1-281, looked up)
chain: MTDHRPSPEEEQTTANEERTVSNGRYLYCVVDTTSSESATLSTTGVDDNPVYVVEADGVGAVVHDCETVYETEDLEQVKRWLVTHQQVVDAASDAFGTPLPMRFDTVLEGGDASIERWLEDHYEGFRDELASFAGVWEYRINLLWDSAPFEETIADRDDRLRELRQRQQQSGAGKKFLLEKQSDQRLQELKRERRTELADQLKEAITPVVNDLTEQDTNTPLQDEHSSIEKEQIVRFAVLADEDDETALGDRLDTIVEHEGVEIRFTGPWPPYTFAPDIGK
notes: GvpL, p-vac region of Hbt. salinarum PHH1, 32 kDa; also called the entire GvpL; source: Hfx. volcanii transformant, in cells
B4: GvpM, entire protein, split-GFP fusion of Figure 7 (natural protein, Halobacterium salinarum, UniProt P24377 1-84, looked up)
chain: MEPTKDETHAIVEFVDVLLRDGAVIQADVIVTVADIPLIGISLRAAIAGMTTMTEYGLFEEWDAAHRQQSEAFTTSPTADRRED
notes: GvpM, p-vac region of Hbt. salinarum PHH1; printed as 83 aa and as 84 aa; also called the entire GvpM; source: Hfx. volcanii transformant, in cells
B5: GvpJ, entire protein, split-GFP fusion of Figure 7 (natural protein, Halobacterium salinarum, UniProt P24374 1-114, looked up)
chain: MSDPKPTRSQGDLAEMLEMLLDKGVVVNADIAVSVGDTELLGIELRAAIASFETAAEYGLEFPTGTDMERVESAANISPDQSDPASETQSETESTNPLSDDSTPTASTSAEETK
notes: also called the entire GvpJ; source: Hfx. volcanii transformant, in cells
B6: GvpA, entire protein, split-GFP fusion (natural protein, Halobacterium salinarum, UniProt P08958 1-76, looked up)
chain: MAQPDSSGLAEVLDRVLDKGVVVDVWARVSLVGIEILTVEARVVAASVDTFLHYAEEIAKIEQAELTAGAEAAPEA
notes: GvpA, p-vac region of Hbt. salinarum PHH1, 76 aa; also called the entire GvpA; source: Hfx. volcanii transformant, in cells
B7: Fragment A1–22 of GvpA, split-GFP fusion (peptide, UniProt P08958 1-22, looked up)
chain: MAQPDSSGLAEVLDRVLDKGVV
notes: GvpA, p-vac region of Hbt. salinarum PHH1, first 22 aa including α-helix 1; construct of Völkner et al. 2020; source: Hfx. volcanii transformant, in cells
B8: Fragment M60–84 of GvpM, split-GFP fusion (peptide, UniProt P24377 60-84, looked up)
chain: EEWDAAHRQQSEAFTTSPTADRRED
notes: GvpM, p-vac region of Hbt. salinarum PHH1, C-terminal 25 aa; also called M25C; M(25C); source: Hfx. volcanii transformant, in cells
B9: Fragment M1–25 of GvpM, split-GFP fusion of Figure 7 (peptide, UniProt P24377 1-25, looked up)
chain: MEPTKDETHAIVEFVDVLLRDGAVI
notes: GvpM, p-vac region of Hbt. salinarum PHH1, N-terminal 25 aa; also called M25N; M(25N); source: Hfx. volcanii transformant, in cells
B10: Fragment A44–76 of GvpA, split-GFP fusion (domain or fragment, Halobacterium salinarum, UniProt P08958 44-76, looked up)
chain: VAASVDTFLHYAEEIAKIEQAELTAGAEAAPEA
notes: GvpA, p-vac region of Hbt. salinarum PHH1, residues 44–76; construct of Völkner et al. 2020; source: Hfx. volcanii transformant, in cells
B11: GvpH, split-GFP fusion (natural protein, Halobacterium salinarum, UniProt P24372 1-182, looked up)
chain: MVPDENDDASDDQSSQLSGLLDQLHTLVEVLADIEEEGGHRHESGRIDRGNARIDYDYDVSIGLGRADGSSYDEEPSSNRSRSEQRSGQQRTTEDSIHVETRGGTSGDELVVVADLPGVTDDDVDVALDTDEQALTLRVDDDVVERVVLDRPDVAITDMTLRNQVLEIRLARTSDTDGGEST
notes: GvpH, p-vac region of Hbt. salinarum PHH1; no truncation is mentioned; source: Hfx. volcanii transformant, in cells

The binders below were run against B3 (assay: split reporter (BiFC, NanoBiT); split-GFP (mGFP2) in Hfx. volcanii transformants, entire Gvp proteins and fragments (Figure 7); arrangement of the GFP portions not stated; relative fluorescence (rf) of cells against untransformed WR340). Settings: partners not purified.

| Binder | relative fluorescence (rf) |
| --- | --- |
| B1 | 77.5 |
| B2 | 7.4 |

The binders below were run against T1, Fragment J1–56 of GvpJ, split-GFP fusion in the same assay as above. Settings: partners not purified.

| Binder | relative fluorescence (rf) |
| --- | --- |
| B3 | 6.7 |

What follows are binders tested against T2, Fragment J47–114 of GvpJ, split-GFP … in the same assay as above. Settings: partners not purified.

| Binder | relative fluorescence (rf) |
| --- | --- |
| B4 | < 5 |
| B5 | < 5 |
| B2 | < 5 |

Each binder was assayed against T3, GvpF, entire protein, split-GFP fusion in the same assay as above. Settings: partners not purified.

| Binder | relative fluorescence (rf) |
| --- | --- |
| B6 | 20 |
| B7 | 41 |

The binders below were run against T4, Fragment L1–134 of GvpL, split-GFP … in the same assay as above. Settings: partners not purified.

| Binder | relative fluorescence (rf) |
| --- | --- |
| B4 | < 2.6 |
| B1 | < 2.6 |
| B5 | < 2.6 |

Each binder was assayed against T5, Fragment L133–281 of GvpL, split-GFP … in the same assay as above. Settings: partners not purified.

| Binder | relative fluorescence (rf) |
| --- | --- |
| B4 | < 2.6 |
| B1 | < 2.6 |
| B5 | < 2.6 |
| B2 | 6.1 |

What follows are binders tested against T6, Fragment F1–110 of GvpF, split-GFP … in the same assay as above. Settings: partners not purified.

| Binder | relative fluorescence (rf) |
| --- | --- |
| B6 | < 4 |
| B7 | < 4 |

Molecular target: T1, Fragment J1–56 of GvpJ, split-GFP fusion
Assay: as above
Settings: partners not purified
Remark: another data set of the same source

| Binder | relative fluorescence (rf) |
| --- | --- |
| B3 | 20 |
| B8 | 20 |
| B9 | 20 |
| B7 | 10 |

Molecular target: T2, Fragment J47–114 of GvpJ, split-GFP …
Assay: as above
Settings: partners not purified
Remark: another data set of the same source

| Binder | relative fluorescence (rf) |
| --- | --- |
| B3 | 11 |
| B1 | 15 |
| B8 | 20 |
| B10 | 5 |
| B9 | 20 |
| B11 | 13 |
| B7 | 5 |

Source: paper PMC8716928, “Effect of Mutations in GvpJ and GvpM on Gas Vesicle Formation of Halobacterium salinarum” (Frontiers in Microbiology, 2021)
